Experimental data from patent publication US20190307847A1.

Target: mouse FGFR4/β-klotho complex co-expressed in rat L6 myoblast cells (mouse) (UniProt Q03142)
Experiment: cell-based or functional assay

Sequence of mouse FGFR4/β-klotho complex co-expressed in rat L6 myoblast cells (mouse) (Q03142 17-799, chain 1 of 2): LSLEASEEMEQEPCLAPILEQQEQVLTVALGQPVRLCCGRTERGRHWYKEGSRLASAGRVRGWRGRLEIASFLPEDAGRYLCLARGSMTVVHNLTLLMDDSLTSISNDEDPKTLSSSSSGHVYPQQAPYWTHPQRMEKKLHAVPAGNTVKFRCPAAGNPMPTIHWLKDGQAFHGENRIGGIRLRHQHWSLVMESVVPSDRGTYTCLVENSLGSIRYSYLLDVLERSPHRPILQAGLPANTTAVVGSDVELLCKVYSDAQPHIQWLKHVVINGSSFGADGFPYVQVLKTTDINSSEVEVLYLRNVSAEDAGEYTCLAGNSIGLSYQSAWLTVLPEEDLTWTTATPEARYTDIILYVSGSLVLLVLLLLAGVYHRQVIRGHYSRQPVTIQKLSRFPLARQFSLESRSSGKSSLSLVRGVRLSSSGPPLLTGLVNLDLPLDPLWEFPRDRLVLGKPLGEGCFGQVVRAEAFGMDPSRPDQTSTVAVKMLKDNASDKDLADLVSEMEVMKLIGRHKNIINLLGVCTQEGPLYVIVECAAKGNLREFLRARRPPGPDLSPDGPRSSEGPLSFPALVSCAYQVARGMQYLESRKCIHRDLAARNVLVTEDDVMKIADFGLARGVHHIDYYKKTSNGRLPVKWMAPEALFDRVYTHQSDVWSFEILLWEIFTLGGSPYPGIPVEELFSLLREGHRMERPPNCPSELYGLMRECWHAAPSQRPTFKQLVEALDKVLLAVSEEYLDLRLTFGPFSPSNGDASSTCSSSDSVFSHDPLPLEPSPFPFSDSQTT
Sequence of mouse FGFR4/β-klotho complex co-expressed in rat L6 myoblast cells (mouse) (Q99N32 whole entry, chain 2 of 2, further chain): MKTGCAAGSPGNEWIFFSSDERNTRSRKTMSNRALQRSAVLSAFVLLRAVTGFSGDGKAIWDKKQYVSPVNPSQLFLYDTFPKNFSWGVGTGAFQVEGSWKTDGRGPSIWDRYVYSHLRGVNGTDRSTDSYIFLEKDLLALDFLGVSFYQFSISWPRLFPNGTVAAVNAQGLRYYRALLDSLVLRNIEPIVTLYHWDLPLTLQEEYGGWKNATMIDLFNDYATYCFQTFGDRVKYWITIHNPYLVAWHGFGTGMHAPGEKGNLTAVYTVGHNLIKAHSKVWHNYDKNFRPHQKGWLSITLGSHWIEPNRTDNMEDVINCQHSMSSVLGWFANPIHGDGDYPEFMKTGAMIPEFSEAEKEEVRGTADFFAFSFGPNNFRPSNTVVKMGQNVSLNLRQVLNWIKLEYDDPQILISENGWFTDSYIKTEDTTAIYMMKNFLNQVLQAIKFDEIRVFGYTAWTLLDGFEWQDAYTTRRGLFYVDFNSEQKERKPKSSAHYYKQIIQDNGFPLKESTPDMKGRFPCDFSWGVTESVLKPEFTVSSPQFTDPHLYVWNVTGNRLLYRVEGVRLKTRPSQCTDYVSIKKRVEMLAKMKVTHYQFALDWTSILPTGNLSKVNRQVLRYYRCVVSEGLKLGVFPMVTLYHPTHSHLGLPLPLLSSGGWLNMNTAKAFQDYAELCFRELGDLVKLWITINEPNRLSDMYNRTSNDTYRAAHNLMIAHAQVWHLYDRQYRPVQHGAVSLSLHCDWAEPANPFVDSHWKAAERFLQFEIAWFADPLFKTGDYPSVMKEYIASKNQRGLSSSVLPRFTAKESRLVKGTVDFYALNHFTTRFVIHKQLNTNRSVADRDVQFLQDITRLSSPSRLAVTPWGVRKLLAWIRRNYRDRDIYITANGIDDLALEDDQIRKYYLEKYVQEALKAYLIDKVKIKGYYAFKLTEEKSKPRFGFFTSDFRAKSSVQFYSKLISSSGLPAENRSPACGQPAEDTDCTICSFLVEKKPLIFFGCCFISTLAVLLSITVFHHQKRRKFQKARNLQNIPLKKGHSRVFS

- EC50 (pM), ELK luciferase assay in L6 cells: 52.5 pM
- Emax (fold potentiation), ELK luciferase assay in L6 cells (fold potentiation): 1.82
Substance: FGF19 (human fibroblast growth factor 19, wild type) (from UniProt O95750 25-216) (ligand)
